Literature values as cited in article PMC4896244.

Target: Connexin 43 CT (UniProt P23242)
Sequence of UniProt P23242 (P23242 255-382): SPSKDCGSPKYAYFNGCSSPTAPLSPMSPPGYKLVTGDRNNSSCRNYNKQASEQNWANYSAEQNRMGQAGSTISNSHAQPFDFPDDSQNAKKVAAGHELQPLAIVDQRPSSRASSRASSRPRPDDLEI

Kd: 300 µM
Substance: CIP75 UBA (from UniProt Q99NB8)
